Experimental data from the supplement of paper PMC6755084.

B1: minF1; a variant is named by its letters at N, in order (parent)
chain: GAGACCGCAACTGAAAAGTTGTTNNNNAANNNNGGNTNNATTTCTGCACGTAGAAGCAAAAGGC

Variants of: B1
Test: fraction ligated after 30 min (ligated reads / total reads); higher = more ligase activity
Conditions: with F1*subA RNA substrate (template-directed ligation), 42 °C
Procedure: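 Chip-synthesised pool of minF1 ligase ribozyme variants (single and double substitutions, single to quadruple deletions, bulge and P2 designed variants) was transcribed with T7 and reacted as a pool with excess substrate F1*subA for 30 min at 42 C in 50 mM EPPS pH 8.5, 25 mM MgCl2. Ligated and unligated RNAs were separated by PAGE, barcoded by RT and deep sequenced; fraction ligated = ligated reads / total reads, relative activity = FL / FL of wild-type minF1 (0.76); sequencing FL correlated with PAGE (R2 = 0.98). Sequences are the DNA template of the ribozyme.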

Variant	fraction ligated
GAGACCGCAACTGAAAAGTTGTTACAAAATGGAGGTTGAATTTCTGCACGTAGAAGCAAAAGGC	0.00232
GAGACCGCAACTGAAAAGTTGTATCAAAATGGATGGGTTGTTTCTGCACGTAGAAGCAAAAGGC	0.00124
GAGACCGCAACTGAAAAGTTGTTTCAAAATGGATGGGTTGTTTCTGCACGTAGAAGCAAAAGGC	0.00127
GAGACCGCAACTGAAAAGTTGTTTCAAAATGTGGGTTGAATTTCTGCACGTAGAAGCAAAAGGC	0.00236
GAGACCGCAACTGAAAAGTTGTTACAAATGGATGGGTTGATTTCTGCACGTAGAAGCAAAAGGC	0.00671
GAGACCGCAACTGAAAAGTTGTTTCAGAAAGATGGGTTGATTTCTGCACGTAGAAGCAAAAGGC	0.0039
GAGACCGCAACTGAAAAGTTGTTTCAGAAAGATGGGTTAATTTCTGCACGTAGAAGCAAAAGGC	0.000871
GAGACCGCAACTGAAAAGTTGTATCAAATGGATGGGTTGATTTCTGCACGTAGAAGCAAAAGGC	0.0062
GAGACCGCAACTGAAAAGTTGTATCAAAAGGTGGGTTGAATTTCTGCACGTAGAAGCAAAAGGC	0.00305
GAGACCGCAACTGAAAAGTTGTTACAAAAGGATGGTTGAATTTCTGCACGTAGAAGCAAAAGGC	0.00332
GAGACCGCAACTGAAAAGTTGTTTCAAAATGGATGGTTAATTTCTGCACGTAGAAGCAAAAGGC	0.0216
GAGACCGCAACTGAAAAGTTGTTTCAAAATGGAGGTTGAATTTCTGCACGTAGAAGCAAAAGGC	0.00193
GAGACCGCAACTGAAAAGTTGTATCAAAATGGAGGTTGAATTTCTGCACGTAGAAGCAAAAGGC	0.00363
GAGACCGCAACTGAAAAGTTGTATCAAAATGGAGGGTTGATTTCTGCACGTAGAAGCAAAAGGC	0.0035
GAGACCGCAACTGAAAAGTTGTTTCAAATGGTGGGTTGAATTTCTGCACGTAGAAGCAAAAGGC	0.00119
GAGACCGCAACTGAAAAGTTGTATCAAATGGTGGGTTGAATTTCTGCACGTAGAAGCAAAAGGC	0.00393
GAGACCGCAACTGAAAAGTTGTATCAGAAAGATGGGTTAATTTCTGCACGTAGAAGCAAAAGGC	0.00211
GAGACCGCAACTGAAAAGTTGTATCAAAATGAGGGTTGAATTTCTGCACGTAGAAGCAAAAGGC	0.00315
GAGACCGCAACTGAAAAGTTGTTACAAAATGATGGGTTGATTTCTGCACGTAGAAGCAAAAGGC	0.00556
GAGACCGCAACTGAAAAGTTGTTACAAAATGATGGGTTAATTTCTGCACGTAGAAGCAAAAGGC	0.00197
GAGACCGCAACTGAAAAGTTGTTACAAAATATGGGTTGAATTTCTGCACGTAGAAGCAAAAGGC	0.00334

Variant	fraction ligated
GAGACCGCAACTGAAAAGTTGTTACAAAATGGATGGGTTGTTTCTGCACGTAGAAGCAAAAGGC	0.00101
GAGACCGCAACTGAAAAGTTGTATCAAAAGGATGGGTTGATTTCTGCACGTAGAAGCAAAAGGC	0.00539
GAGACCGCAACTGAAAAGTTGTATCAAAAGGATGGTTGAATTTCTGCACGTAGAAGCAAAAGGC	0.00297
GAGACCGCAACTGAAAAGTTGTATCAAAATGGTGGGTTAATTTCTGCACGTAGAAGCAAAAGGC	0.00153
GAGACCGCAACTGAAAAGTTGTATCAAAATGGATGGTTAATTTCTGCACGTAGAAGCAAAAGGC	0.0178
GAGACCGCAACTGAAAAGTTGTTACAGAAAATGGGTTGAATTTCTGCACGTAGAAGCAAAAGGC	0.00222
GAGACCGCAACTGAAAAGTTGTATCAAAATGGGGGTTGAATTTCTGCACGTAGAAGCAAAAGGC	0.00158
GAGACCGCAACTGAAAAGTTGTATCAAATGGATGGGTTAATTTCTGCACGTAGAAGCAAAAGGC	0.00242
GAGACCGCAACTGAAAAGTTGTTACAAAATGGGGGTTGAATTTCTGCACGTAGAAGCAAAAGGC	0.00353
GAGACCGCAACTGAAAAGTTGTTTCAAAAGGATGGTTGAATTTCTGCACGTAGAAGCAAAAGGC	0.00222
GAGACCGCAACTGAAAAGTTGTTTCAGAAAATGGGTTGAATTTCTGCACGTAGAAGCAAAAGGC	0.00302
GAGACCGCAACTGAAAAGTTGTTACAAAAGGATGGGTTGATTTCTGCACGTAGAAGCAAAAGGC	0.00585
GAGACCGCAACTGAAAAGTTGTTTCAAAATGGGGGTTGAATTTCTGCACGTAGAAGCAAAAGGC	0.00124
GAGACCGCAACTGAAAAGTTGTTTCAAAATGGTGGTTGAATTTCTGCACGTAGAAGCAAAAGGC	0.00179
GAGACCGCAACTGAAAAGTTGTTTCAAATGGATGGGTTGATTTCTGCACGTAGAAGCAAAAGGC	0.00632
GAGACCGCAACTGAAAAGTTGTATCAAAATGATGGTTGAATTTCTGCACGTAGAAGCAAAAGGC	0.00254
GAGACCGCAACTGAAAAGTTGTTACAAAATGGATGGTTGATTTCTGCACGTAGAAGCAAAAGGC	0.0274
GAGACCGCAACTGAAAAGTTGTATCAAATGGATGGTTGAATTTCTGCACGTAGAAGCAAAAGGC	0.00443
GAGACCGCAACTGAAAAGTTGTTTCAAAATGGATGGTTGATTTCTGCACGTAGAAGCAAAAGGC	0.0438
GAGACCGCAACTGAAAAGTTGTATCAAAATGTGGGTTGAATTTCTGCACGTAGAAGCAAAAGGC	0.00162
GAGACCGCAACTGAAAAGTTGTATCAAAATGGATGGGTTATTTCTGCACGTAGAAGCAAAAGGC	0.00105
